Assay results reported in publication PMC5012860.

Target: T1, UHRF1 wild-type (human) (UniProt Q96T88)
T1 sequence: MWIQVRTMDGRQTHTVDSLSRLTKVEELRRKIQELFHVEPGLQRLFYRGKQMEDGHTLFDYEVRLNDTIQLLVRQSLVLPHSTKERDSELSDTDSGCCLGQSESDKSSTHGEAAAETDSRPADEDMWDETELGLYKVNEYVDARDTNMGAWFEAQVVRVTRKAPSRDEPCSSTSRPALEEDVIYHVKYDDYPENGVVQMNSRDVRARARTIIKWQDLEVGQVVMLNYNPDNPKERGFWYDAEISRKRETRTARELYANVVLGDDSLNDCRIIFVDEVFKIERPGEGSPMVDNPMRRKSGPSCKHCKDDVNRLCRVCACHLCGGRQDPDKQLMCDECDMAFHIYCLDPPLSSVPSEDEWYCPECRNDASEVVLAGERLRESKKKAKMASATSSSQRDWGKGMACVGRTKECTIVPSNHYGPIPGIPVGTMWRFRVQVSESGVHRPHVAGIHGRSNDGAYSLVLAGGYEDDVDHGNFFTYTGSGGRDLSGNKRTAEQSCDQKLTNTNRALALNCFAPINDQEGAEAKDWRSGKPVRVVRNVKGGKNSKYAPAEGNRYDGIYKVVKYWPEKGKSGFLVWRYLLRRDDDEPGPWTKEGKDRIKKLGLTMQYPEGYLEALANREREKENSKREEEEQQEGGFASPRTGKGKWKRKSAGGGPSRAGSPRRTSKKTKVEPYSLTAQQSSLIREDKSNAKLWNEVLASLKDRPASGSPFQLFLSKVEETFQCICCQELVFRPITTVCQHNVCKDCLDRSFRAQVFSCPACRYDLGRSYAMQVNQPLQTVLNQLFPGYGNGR
Assay: fluorescence polarization
Details: 50 mM vs 150 mM NaCl; 5mC at position 6 of strand 2 (GTCAG5mCGCATGG); 25 mM HEPES pH 7.5, 0.05% NP-40, 100 mM NaCl (unless indicated), 10 nM FAM-DNA, 10 min, 25 C; scale: fold affinity difference between 50 and 150 mM NaCl

## CCATGCGCTGAC (double strand) [HeDNA]
  binding signal: 500
